From patent US20140004122A1 (published 2014)

Experiments:
[1] = biological target: T1, cynomolgus monkey PCSK9, V5- and 6xHis-tagged (cynomolgus monkey, UniProt A0A7N9D9N8 150-747); test: BIAcore solution equilibrium; PCSK9 mixed with 21B12.1, free PCSK9 measured on immobilised 21B12
T1 construct: also called cPCSK9-V5-6xHIS; cPCSK9; not shown: V5 tag and 6xHis tag

[2] = biological target: T1, cynomolgus monkey PCSK9, V5- and …; test: BIAcore SPR; antibody amine-coupled to CM5 chip, PCSK9 injected as analyte; pH 7.4
[3] = biological target: T1, cynomolgus monkey PCSK9, V5- and …; test: KinExA solution equilibrium; free antibody captured on PCSK9-coated beads; cPCSK9 concentration adjusted to 50% active
[4] = biological target: T1, cynomolgus monkey PCSK9, V5- and …; test: as above; remark: listed apart in the source
PCSK7 (R&D Systems) = biological target: T2, PCSK7 (R&D Systems) (UniProt Q16549 142-667, limits assumed); test: competition ELISA: 11F1 (0.4 µg/mL) pre-incubated with soluble convertase, then binding to plate-captured biotinylated PCSK9
T2 sequence (looked up): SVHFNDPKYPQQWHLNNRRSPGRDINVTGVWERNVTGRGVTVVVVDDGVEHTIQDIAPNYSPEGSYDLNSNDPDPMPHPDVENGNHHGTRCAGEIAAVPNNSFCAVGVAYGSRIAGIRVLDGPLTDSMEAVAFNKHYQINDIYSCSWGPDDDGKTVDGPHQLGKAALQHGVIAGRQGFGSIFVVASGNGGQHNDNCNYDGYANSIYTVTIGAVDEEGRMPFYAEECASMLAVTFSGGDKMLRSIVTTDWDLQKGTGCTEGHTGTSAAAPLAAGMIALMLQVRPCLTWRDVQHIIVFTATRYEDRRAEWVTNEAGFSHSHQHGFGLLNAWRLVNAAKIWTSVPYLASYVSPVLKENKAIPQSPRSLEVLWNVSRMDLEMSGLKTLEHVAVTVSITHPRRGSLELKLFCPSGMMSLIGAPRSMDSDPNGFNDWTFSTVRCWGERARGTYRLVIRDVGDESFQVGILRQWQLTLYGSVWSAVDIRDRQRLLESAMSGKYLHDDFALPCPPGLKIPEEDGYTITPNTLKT

PCSK1 (R&D Systems) = biological target: T3, PCSK1 (R&D Systems) (UniProt P29120 111-753, limits assumed); test: as above
T3 sequence (looked up): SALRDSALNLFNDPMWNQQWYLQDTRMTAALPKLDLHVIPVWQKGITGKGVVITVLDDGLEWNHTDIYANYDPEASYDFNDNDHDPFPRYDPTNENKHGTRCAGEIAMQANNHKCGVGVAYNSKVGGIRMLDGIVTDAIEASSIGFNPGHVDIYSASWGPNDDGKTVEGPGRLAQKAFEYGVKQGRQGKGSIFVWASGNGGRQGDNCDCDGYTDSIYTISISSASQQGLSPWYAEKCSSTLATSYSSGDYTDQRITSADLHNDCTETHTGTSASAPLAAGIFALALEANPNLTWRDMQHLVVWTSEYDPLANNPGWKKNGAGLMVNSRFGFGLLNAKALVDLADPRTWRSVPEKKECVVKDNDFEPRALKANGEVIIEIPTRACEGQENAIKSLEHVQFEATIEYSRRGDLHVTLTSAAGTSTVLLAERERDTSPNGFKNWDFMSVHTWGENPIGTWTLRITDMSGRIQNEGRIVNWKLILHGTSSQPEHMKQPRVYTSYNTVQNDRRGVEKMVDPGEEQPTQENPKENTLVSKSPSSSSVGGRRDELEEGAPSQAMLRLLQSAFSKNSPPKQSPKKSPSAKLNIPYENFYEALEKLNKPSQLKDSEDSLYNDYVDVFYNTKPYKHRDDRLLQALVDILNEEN

B1: 21B12 anti-PCSK9 human IgG4 antibody (from hybridoma) (antibody, V domains shown)
VH: QVQLVQSGAEVKKPGASVKVSCKASGYTLTSYGISWVRQAPGQGLEWMGWVSFYNGNTNYAQKLQGRGTMTTDPSTSTAYMELRSLRSDDTAVYYCARGYGMDVWGQGTTVTVSS
VL: QSALTQPASVSGSPGQSITISCTGTSSDVGGYNSVSWYQQHPGKAPKLMIYEVSNRPSGVSNRFSGSKSGNTASLTISGLQAEDEADYYCNSYTSTSMVFGGGTKLTVLQ
notes: also called 21B12.1; 21B12 IgG4
B1 showed a Kd [1] of 0.011 nM and a Kd [2] of 0.36 nM.

B2: 31H4 anti-PCSK9 human IgG4 antibody (from hybridoma) (antibody, V domains shown)
VH: EVQLVESGGGLVKPGGSLRLSCAASGFTFSSYSMNWVRQAPGKGLEWVSSISSSSSYISYADSVKGRFTISRDNAKNSLYLQMNSLRAEDTAVYFCARDYDFWSAYYDAFDVWGQGTMVTVSS
VL: QSVLTQPPSVSGAPGQRVTISCTGSSSNIGAGYDVHWYQQLPGTAPKLLISGNSNRPSGVPDRFSGSKSGTSASLAITGLQAEDEADYYCQSYDSSLSGSVFGGGTKLTVLQ
notes: also called 31H4.1; 31H4 IgG4
Work on B2 yielded a Kd [2] of 0.19 nM and a Kd [3] of 0.002 nM.

B3: 16F12 anti-PCSK9 human IgG4 antibody (antibody, V domains shown)
VH: QVHLVESGGGVVQPGRSLRLSCAASGFTFNSFGMHWVRQAPGKGLEWVALIWSDGSDEYYADSVKGRFTISRDNSKNTLYLQMNSLRAEDTAVYYCARAIAALYYYYGMDVWGQGTTVTVSS
VL: QSVLTQPPSVSAAPGQKVTISCSGSSSNIGNNFVSWYQQLPGTAPKLLIYDYNKRPSGIPDRFSGSKSGTSATLGITGLQTGDEADYYCGTWDSSLSAYVFGTGTRVTVLQ
notes: also called 16F12.1; 16F12, anti-PCSK9 huIgG4
Work on B3 yielded a Kd [2] of 0.87 nM and a Kd [4] of 0.016 nM.

B4: 11F1 anti-PCSK9 antibody (antibody, V domains shown)
VH: EVQLVESGGGLVQPGGSLRLSCAASGFTFSNYWMSWVRQAPGKGLEWVASIKQDGSEKYYVDSVKGRFAISRDNAKNSLFLQMNSLRAEDTAVYYCARDLVLMVYDIDYYYYGMDVWGQGTTVTVSS
VL: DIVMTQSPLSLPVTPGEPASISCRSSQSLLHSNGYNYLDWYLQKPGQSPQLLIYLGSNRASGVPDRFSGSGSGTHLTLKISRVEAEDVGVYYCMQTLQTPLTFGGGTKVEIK
notes: It was detected with anti-human Fc, so it is a whole human antibody
B4: no binding (tested: 0 to 20 µg/mL) (PCSK7 (R&D Systems)); no binding (tested: 0 to 20 µg/mL) (PCSK1 (R&D Systems)).
